Experimental findings from patent US20190276549A1 are described below.

Read-outs that look alike come from different tables or passages of the source.

Test [1] deals with C1q (human) (UniProt P02745). The test is described as follows: cell-based or functional assay.
Test [2] addresses C1q (human) (UniProt P02745). The test is described as follows: cell-based or functional assay. The source holds these as a separate data set.
Test [3] deals with CD52 (human) (UniProt P31358). The test is described as follows: QIFIKIT indirect immunofluorescence, flow cytometry, 10 µg/mL antibody, REH cells. (A flow cytometer gives signals particle by particle.)
The target in test [4] is CD52 (human) (UniProt P31358). As to the kind of experiment: QIFIKIT indirect immunofluorescence, flow cytometry, 10 µg/mL antibody, Raji cells.
The target of test [5] is CD52 (human) (UniProt P31358). The test is described as follows: QIFIKIT indirect immunofluorescence, flow cytometry, 10 µg/mL antibody, Daudi cells.
Test [6] addresses CD52 (human) (UniProt P31358). The test is described as follows: QIFIKIT indirect immunofluorescence, flow cytometry, 10 µg/mL antibody, Ramos cells.
Test [7] addresses CD52 (human) (UniProt P31358). As to the kind of experiment: QIFIKIT indirect immunofluorescence, flow cytometry, 10 µg/mL antibody, U-266B1 cells.
Test [8] addresses CD52 (human) (UniProt P31358). The test is described as follows: QIFIKIT indirect immunofluorescence, flow cytometry, 10 µg/mL antibody, U-698-M cells.
For test [9], the target named is CD52 (human) (UniProt P31358). As to the kind of experiment: QIFIKIT indirect immunofluorescence, flow cytometry, 10 µg/mL antibody, Wien 133 cells.

Sequence of UniProt P02745 (P02745 23-245 limits assumed, chain 1 of 3): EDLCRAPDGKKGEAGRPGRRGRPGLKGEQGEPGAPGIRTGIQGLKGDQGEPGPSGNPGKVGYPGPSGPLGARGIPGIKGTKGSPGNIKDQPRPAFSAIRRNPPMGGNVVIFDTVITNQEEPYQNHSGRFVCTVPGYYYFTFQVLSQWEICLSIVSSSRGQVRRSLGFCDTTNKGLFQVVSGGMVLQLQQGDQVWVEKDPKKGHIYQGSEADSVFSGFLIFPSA
Sequence of UniProt P02745 (P02746 28-253 limits assumed, chain 2 of 3, further chain): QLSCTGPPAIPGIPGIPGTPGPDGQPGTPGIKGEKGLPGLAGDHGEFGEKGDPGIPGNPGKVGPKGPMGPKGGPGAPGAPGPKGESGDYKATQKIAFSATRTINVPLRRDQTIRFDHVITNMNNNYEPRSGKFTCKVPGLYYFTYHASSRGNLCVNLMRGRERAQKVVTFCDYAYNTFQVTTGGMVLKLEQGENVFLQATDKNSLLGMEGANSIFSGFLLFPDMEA
Sequence of UniProt P02745 (P02747 29-245 limits assumed, chain 3 of 3, further chain): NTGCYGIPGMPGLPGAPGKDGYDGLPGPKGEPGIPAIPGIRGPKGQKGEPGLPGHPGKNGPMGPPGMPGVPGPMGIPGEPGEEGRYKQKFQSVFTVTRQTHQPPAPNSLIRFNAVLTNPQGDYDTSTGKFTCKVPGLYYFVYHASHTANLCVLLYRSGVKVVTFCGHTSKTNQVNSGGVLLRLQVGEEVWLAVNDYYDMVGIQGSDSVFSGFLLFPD

In the test with C1q (human) [1], IgG1-005-AA-E345R (antibody) displayed a CDC on Daudi cells, 20% NHS: EC50 of 0.14 mg/L and a CDC on Daudi cells, 20% NHS: maximal kill of 74.3%.
Take IgG1-005-AA-E430G (antibody): the CDC on Daudi cells, 20% NHS: EC50 in the test with C1q (human) [1] turned out to be 0.06 mg/L.
As for IgG1-005-D270R/E430G (antibody), the CDC on Daudi cells, 20% NHS: EC50 with C1q (human) [2] came out at 0.15 mg/L.
Consider IgG1-005-E345R (antibody), for which, in the test with C1q (human) [1], the CDC on Daudi cells, 20% NHS: EC50 came out at 0.01 mg/L.
Take IgG1-005-E430G (antibody): the CDC on Daudi cells, 20% NHS: EC50 with C1q (human) [1] stood at 0.01 mg/L; in the test with C1q (human) [2], 0.005 mg/L.
Regarding IgG1-Campath (antibody), the antibody binding capacity (Molecules/cell) (molecules/cell) is 135000 with CD52 (human) [3]; 85500 in the test with CD52 (human) [4]; 7280 in the test with CD52 (human) [5]; 179000 with CD52 (human) [6]; 1.46e+06 in the test with CD52 (human) [7]; 93700 with CD52 (human) [8]. In addition, in the test with CD52 (human) [9], the antibody binding capacity (Molecules/cell) (molecules/cell) stood at 332000.
The substance “IgG1-Campath variant E345R with the K322E mutation (antibody)” yielded a CDC on Wien 133 cells, 20% NHS: area under the dose response curve, IgG1-Campath = 100% with C1q (human) [2] of 60%.
In the test with C1q (human) [2], IgG1-Campath-E345K (antibody) gave a CDC on Wien 133 cells, 20% NHS: area under the dose response curve relative to IgG1-Campath of 2.4 fold and a CDC on Wien 133 cells, 20% NHS: area under the dose response curve, IgG1-Campath = 100% of 240%.
